In publication PMC9279156, “A peroxisomal ubiquitin ligase complex forms a retrotranslocation channel” (Nature, 2022):
Values belong to the binder of their own block, whether it stands above or below them.

Molecular target: T1, T. thermophilus Pex12 (1–439) with an N-terminal SBP tag (Thermothelomyces thermophilus, UniProt G2Q5N0 1-439)
T1 construct: Pex12 of Thermothelomyces thermophilus, residues 1-439; codon-optimised synthetic gene; the SBP tag is followed by a HRV3C protease cleavage site; also called T.t; Pex12; source: P. pastoris SMD1168, co-expressed with Pex2 and Pex10, purified (streptavidin resin, gel filtration) in digitonin; not shown: SBP, N-terminal, kept
T1 sequence (looked up): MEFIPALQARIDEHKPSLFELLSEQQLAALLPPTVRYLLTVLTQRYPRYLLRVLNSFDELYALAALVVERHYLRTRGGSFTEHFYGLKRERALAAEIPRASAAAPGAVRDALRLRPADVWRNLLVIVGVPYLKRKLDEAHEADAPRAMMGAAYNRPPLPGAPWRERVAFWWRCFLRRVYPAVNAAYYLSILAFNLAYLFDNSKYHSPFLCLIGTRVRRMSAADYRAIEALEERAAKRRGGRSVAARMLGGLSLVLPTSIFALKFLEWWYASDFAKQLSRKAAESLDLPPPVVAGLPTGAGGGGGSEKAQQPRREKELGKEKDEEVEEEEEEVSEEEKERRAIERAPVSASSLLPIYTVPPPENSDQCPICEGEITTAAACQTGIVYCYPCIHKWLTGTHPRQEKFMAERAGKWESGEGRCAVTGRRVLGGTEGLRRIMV
Assay: pull-down + SEC; Pex2, Pex10 and SBP-Pex12 co-expressed in P. pastoris; membranes solubilised in 1% LMNG; captured on streptavidin resin through SBP-Pex12, eluted with biotin, gel filtration (Superose 6) in 25 mM HEPES pH 7.4, 150 mM NaCl, 0.05% digitonin; fractions by SDS-PAGE and Coomassie staining
Details: partners not purified

stoichiometry N: 1
B1: T. thermophilus Pex10 (1–454) (natural protein, Thermothelomyces thermophilus, UniProt G2Q0E2 1-454, looked up)
chain: MATQPPPARPPPPLTSSPYPYAAAPDIIRAHQKDAYFQGVLANRLSDLHRRLRGARSAHAWAAETRTFAAALYLCLTTLLGNRTLGEEYCDLVQVEEAPSKLFASSSSKAADDHIYENGLGGGGDGGPLLPSLPRRAGYILTAIVLPHLASRALPSVRSAIRKRLQSRLATLSRRRQQTGTKSGSGRGGRGGGGGITEYRVLRYLLTHLTPLTSGAHFRAATLAVFYFTGAYYELSKWVWGLRYVFTTRAGRVVDDDHNRHHHSPQHGGGNGGRAGYEVLGVLLVVQMAVRAWLHVREQLSSGSVAGGGGEEEEDGEDGFRERTAFGPGTNVDVSLDEHAFTSNNELLGGGGGGGGSSSQRSLGEIGAMAHTPVLKAGRARYDLGTSDKVMGWIKGAQQRKCTLCLEELKDPAATQCGHVFCWACIGDWVREKPECPLCRREAMVQHILPLRAA
notes: Pex10 of Thermothelomyces thermophilus, residues 1-454; codon-optimised synthetic gene; also called T.t; Pex10; source: P. pastoris SMD1168, co-expressed with Pex2 and Pex12, purified (streptavidin resin, gel filtration) in digitonin

stoichiometry N: 1
B2: T. thermophilus Pex2 (140–495) (domain or fragment, Thermothelomyces thermophilus, UniProt G2Q1C9 140-495, looked up)
chain: SREGTRPAFRVGQVDAELLDEELVELLRGQVREALRYVGGGGGGGGGGGGGGVGSGVAQDWEAEISLALRAVLFKLTVWDHDATYGAALQNLKYTDARRDGPALAPPSRWQKALYGLVTVGGRYLWAKWEDWLLEQDDGFEGPSPRVKRLARWTSALSTLHASAALVSFLVFLLHGRYRTLLDRLLRMRLAPPTSQVSREVSFEYLNRQLVWHAFTEFLLFVLPLVGINRWRRWLARTWRRTKKIMTADADGGAGDKKGEYSFLPERTCAICYRDQNSASSETELLAAASGGVVGSAQTDITNPYEAIPCGCTYCFVCLATRIEREEGEGWPCLRCGELIKECKPWNGDVLEEPQV
notes: Pex2 of Thermothelomyces thermophilus, residues 140-495; codon-optimised synthetic gene; also called T.t; Pex2; source: P. pastoris SMD1168, co-expressed with Pex10 and Pex12, purified (streptavidin resin, gel filtration) in digitonin
